Experimental findings from paper PMC2064084 are described below.

In the assay the target is GST–tubulin tails (ending in either Tyr or Glu). Description: pull-down.

B1: E442Q Spastin (enzyme)
chain: ESGAVPKRKDPLTHTSNSLPRSKTVMKTGSAGLSGHHRAPSYSGLSMVSGVKQGSGPAPTTHKGTPKTNRTNKPSTPTTATRKKKDLKNFRNVDSNLANLIMNEIVDNGTAVKFDDIAGQDLAKQALQEIVILPSLRPELFTGLRAPARGLLLFGPPGNGKTMLAKAVAAESNATFFNISAASLTSKYVGEGEKLVRALFAVARELQPSIIFIDQVDSLLCERREGEHDASRRLKTEFLIEFDGVQSAGDDRVLVMGATNRPQELDEAVLRRFIKRVYVSLPNEETRLLLLKNLLCKQGSPLTQKELAQLARMTDGYSGSDLTALAKDAALGPIRELKPEQVKNMSASEMRNIRLSDFTESLKKIKRSVSPQTLEAYIRWNKDFGDTTV
Consider B1, for which the percent of the Spastin bound fell in the range of 25 to 33%.
